{"source": "paper PMC3630169", "key": {"[1]": {"molecular_target": "outer surface protein E (OspE) from B. burgdorferi sensu stricto strain N40 (B. burgdorferi sensu stricto strain N40)", "assay": "radioligand binding; OspE, FhbA or Tuf coated on microtitre plates (5–25 µg/ml in PBS, 4°C, 12 h), blocked with 0.5% BSA/PBS; ^125I-FH19-20 (50,000 cpm/well) mixed with serial dilutions of FH19-20 mutants; 37°C, 60 min; IC50 from fitted inhibition curves, three experiments in triplicate"}, "[2]": {"molecular_target": "FhbA from B. hermsii strain MAN (B. hermsii strain MAN)", "assay": "radioligand binding; OspE, FhbA or Tuf coated on microtitre plates (5–25 µg/ml in PBS, 4°C, 12 h), blocked with 0.5% BSA/PBS; ^125I-FH19-20 (50,000 cpm/well) mixed with serial dilutions of FH19-20 mutants; 37°C, 60 min; IC50 from fitted inhibition curves, three experiments in triplicate"}}, "data": [{"substance": "FH19-20 D1119G (from UniProt P08603 1107-1231) (domain or fragment)", "values": [{"measurement": "IC50mut/IC50wt", "setting": "[1]", "value": 0.6}, {"measurement": "IC50mut/IC50wt", "setting": "[2]", "value": 0.9}]}, {"substance": "FH19-20 E1198A (from UniProt P08603 1107-1231) (domain or fragment)", "values": [{"measurement": "IC50mut/IC50wt", "setting": "[1]", "value": 24.7}, {"measurement": "IC50mut/IC50wt", "setting": "[2]", "value": 25.1}]}, {"substance": "FH19-20 K1186A (from UniProt P08603 1107-1231) (domain or fragment)", "values": [{"measurement": "IC50mut/IC50wt", "setting": "[1]", "value": 0.2}, {"measurement": "IC50mut/IC50wt", "setting": "[2]", "value": 0.5}]}, {"substance": "FH19-20 K1188A (from UniProt P08603 1107-1231) (domain or fragment)", "values": [{"measurement": "IC50mut/IC50wt", "setting": "[1]", "value": 0.8}, {"measurement": "IC50mut/IC50wt", "setting": "[2]", "value": 1.6}]}, {"substance": "FH19-20 L1189R (from UniProt P08603 1107-1231) (domain or fragment)", "values": [{"measurement": "IC50mut/IC50wt", "setting": "[1]", "value": 2.9}, {"measurement": "IC50mut/IC50wt", "setting": "[2]", "value": 4.9}]}, {"substance": "FH19-20 Q1139A (from UniProt P08603 1107-1231) (domain or fragment)", "values": [{"measurement": "IC50mut/IC50wt", "setting": "[1]", "value": 1.2}, {"measurement": "IC50mut/IC50wt", "setting": "[2]", "value": 1.1}]}, {"substance": "FH19-20 R1182A (from UniProt P08603 1107-1231) (domain or fragment)", "values": [{"measurement": "IC50mut/IC50wt", "setting": "[1]", "value": 3}, {"measurement": "IC50mut/IC50wt", "setting": "[2]", "value": 18}]}, {"substance": "FH19-20 R1203A (from UniProt P08603 1107-1231) (domain or fragment)", "values": [{"measurement": "IC50mut/IC50wt", "setting": "[1]", "value": 4.7}, {"measurement": "IC50mut/IC50wt", "setting": "[2]", "value": 41.9}]}, {"substance": "FH19-20 R1206A (from UniProt P08603 1107-1231) (domain or fragment)", "values": [{"measurement": "IC50mut/IC50wt", "setting": "[1]", "value": 3.4}, {"measurement": "IC50mut/IC50wt", "setting": "[2]", "value": 3.1}]}, {"substance": "FH19-20 R1210A (from UniProt P08603 1107-1231) (domain or fragment)", "values": [{"measurement": "IC50mut/IC50wt", "setting": "[1]", "value": 1.3}, {"measurement": "IC50mut/IC50wt", "setting": "[2]", "value": 1.8}]}, {"substance": "FH19-20 R1215Q (from UniProt P08603 1107-1231) (domain or fragment)", "values": [{"measurement": "IC50mut/IC50wt", "setting": "[1]", "value": 33.8}, {"measurement": "IC50mut/IC50wt", "setting": "[2]", "value": 2}]}, {"substance": "FH19-20 T1184R (from UniProt P08603 1107-1231) (domain or fragment)", "values": [{"measurement": "IC50mut/IC50wt", "setting": "[1]", "value": 1.2}, {"measurement": "IC50mut/IC50wt", "setting": "[2]", "value": 1.7}]}, {"substance": "FH19-20 W1157L (from UniProt P08603 1107-1231) (domain or fragment)", "values": [{"measurement": "IC50mut/IC50wt", "setting": "[1]", "value": 1.4}, {"measurement": "IC50mut/IC50wt", "setting": "[2]", "value": 1.4}]}, {"substance": "FH19-20 W1183L (from UniProt P08603 1107-1231) (domain or fragment)", "values": [{"measurement": "IC50mut/IC50wt", "setting": "[1]", "value": 97.1}, {"measurement": "IC50mut/IC50wt", "setting": "[2]", "value": 66.4}]}]}
